# Experimental data from patent publication US8124332B2, “Methods of using sIP-10, CD26 inhibitors and CXCR3 levels in a sample to assess clearance of infection, response to interferon therapy, and treating chronic infections” (Institut Pasteur, priority 2006, dated 2012).
# Tests used:
# CXCR3+ cells = experiment: Lymphocyte chemotaxis assay; type: cell-based, human; conditions: PHA-T blasts, chemokine in bottom chamber, 2 hours at 37° C.
# CXCR3 [1] = target: T1, CXCR3 (Homo sapiens, UniProt P49682); experiment: Ca++ flux in CHO cells transfected with a CXCR3 expressing plasmid; type: cell-based; parameters: transfected with a plasmid encoding the full-length open reading frame of CXCR3; expressed in transfected cells; plasmid from Dr. C P Tensen, Leiden
# T1 sequence (P49682 1-368): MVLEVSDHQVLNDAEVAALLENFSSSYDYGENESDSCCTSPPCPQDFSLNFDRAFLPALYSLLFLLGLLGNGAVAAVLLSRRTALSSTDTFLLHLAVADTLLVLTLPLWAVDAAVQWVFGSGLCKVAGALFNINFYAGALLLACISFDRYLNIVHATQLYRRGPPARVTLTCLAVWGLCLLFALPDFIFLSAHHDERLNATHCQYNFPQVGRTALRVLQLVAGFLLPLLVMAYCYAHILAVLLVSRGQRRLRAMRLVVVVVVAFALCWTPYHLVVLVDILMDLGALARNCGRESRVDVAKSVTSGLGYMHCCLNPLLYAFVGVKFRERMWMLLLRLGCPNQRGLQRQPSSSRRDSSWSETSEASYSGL
# Excerpt: In order to test the hypothesis, it was necessary to generate novel reagents. First, recombinant full length CXCL10 (1-77) was exposed to recombinant DPP4 and cleavage was monitored by SELDI mass spectroscopy (FIG. 18A). […] Next, the inventors performed in vitro studies confirming that CXCL10 (1-77) but not CXCL10 (3-77) is capable of: (i) directing the migration of CXCR3^+ cells (FIG. 18B); (ii) mediating receptor internalization in primary PBMCs (not shown); and (iii) triggering a Ca^++ flux in CHO cells transfected with a CXCR3 expressing plasmid (FIGS. 18C, 18D). […] To date, however, there has been no in vivo evidence to support a role for CXCL10 antagonism in disease pathogenesis. […]
# To generate CXCL10 (3-77), recombinant human CXCL10 (Peprotech, Rocky Hill, N.Y. USA) was incubated with recombinant DPP4 (Sigma) in a 100 mM Tris-HCL pH 8 solution, for 2 h at 37° C. […] Arrays were incubated and washed as per manufacturers instructions and analyzed using the ProteinChip System Series 4000 (Ciphergen). […] Data were analyzed using CiphergenExpress Software. […] Lymphocytes were allowed to migrate for 2 hours at 37° C. and cells in the bottom chamber were counted using a Guava cytometer (Guava Technologies, C A, USA). Calcium-flux assays: Increased intracellular [Ca^2+] in response to CXCR3 signaling were monitored by FACS. […] Ca^++ release was measured using a Canto II Cytometer. […]
# CXCR3 [2] = target: T1, CXCR3; experiment: Receptor internalization in primary PBMCs; type: cell-based; parameters: endogenous in cells; host or cells: primary PBMCs
# Excerpt: In order to test the hypothesis, it was necessary to generate novel reagents. First, recombinant full length CXCL10 (1-77) was exposed to recombinant DPP4 and cleavage was monitored by SELDI mass spectroscopy (FIG. 18A). […] Next, the inventors performed in vitro studies confirming that CXCL10 (1-77) but not CXCL10 (3-77) is capable of: (i) directing the migration of CXCR3^+ cells (FIG. 18B); (ii) mediating receptor internalization in primary PBMCs (not shown); and (iii) triggering a Ca^++ flux in CHO cells transfected with a CXCR3 expressing plasmid (FIGS. 18C, 18D). […] To date, however, there has been no in vivo evidence to support a role for CXCL10 antagonism in disease pathogenesis. In part, the challenge in establishing in vivo evidence of this mechanism of immune regulation is due to the inability to discriminate the two forms of the chemokine by a sensitive, immune-based assay.
# [3] = tested on: plasma DPP activity (X-prolyl DPP); conditions: plasma of patients with HCV infection
substance,measurement,setting,value
"CXCL10 (1-77): recombinant full length secreted human CXCL10, agonist form",directing the migration of CXCR3+ cells,CXCR3+ cells,capable
same,triggering a Ca++ flux,CXCR3 [1]; CHO cells transfected with CXCR3,capable
same,mediating receptor internalization,CXCR3 [2],capable
"CXCL10 (3-77): NH2-terminal truncated CXCL10 generated by DPP4 cleavage of two amino acids, antagonist form",antagonism of CXCL10 (1-77) induced Ca++ mobilization,"CXCR3 [1]; 5 min pre-treatment, then CXCL10 (1-77)",antagonized
isoleucine-proline-isoleucine [IPI],inhibition of the enzymatic activity (plasma DPP activity),[3],> 98%
